The record followed here is patent US20240218063A1 (HARPOON THERAPEUTICS, published 2024).

Changes are numbered by the printed parent chain.

T1: human DLL3 on DLL3 expressing cancer cell lines (human, UniProt Q9NYJ7 27-618)
T1 sequence: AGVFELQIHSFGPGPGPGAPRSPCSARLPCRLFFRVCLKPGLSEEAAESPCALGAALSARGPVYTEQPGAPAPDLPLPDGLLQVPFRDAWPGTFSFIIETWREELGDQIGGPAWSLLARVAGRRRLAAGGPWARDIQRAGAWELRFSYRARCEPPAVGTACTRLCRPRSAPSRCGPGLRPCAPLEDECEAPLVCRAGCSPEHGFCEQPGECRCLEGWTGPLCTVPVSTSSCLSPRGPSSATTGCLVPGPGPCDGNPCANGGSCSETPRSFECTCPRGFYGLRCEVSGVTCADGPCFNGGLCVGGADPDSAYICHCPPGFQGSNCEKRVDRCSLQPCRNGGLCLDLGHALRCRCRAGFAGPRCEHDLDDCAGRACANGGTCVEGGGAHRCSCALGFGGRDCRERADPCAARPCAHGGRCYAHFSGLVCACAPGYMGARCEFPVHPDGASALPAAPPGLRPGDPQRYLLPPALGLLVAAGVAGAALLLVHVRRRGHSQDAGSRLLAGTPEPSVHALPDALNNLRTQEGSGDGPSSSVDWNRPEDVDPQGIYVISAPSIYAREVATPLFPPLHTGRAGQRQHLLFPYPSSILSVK

B1: anti-DLL3 trispecific protein 4H011 (other, not shown: small tags and cut ends)
chain: EVQLVESGGGLVQPGGSLTLSCAASGSSVSRLSMAWYRQAPGKKRELVAGISVDGSTDYIDSVKGRFTISRDNAKNSVYLQMNSLRAEDTAVYYCYAYRWTTRLTYWGQGTLVTVSS
B2: anti-DLL3 trispecific protein 1A011 (other, not shown: small tags and cut ends)
chain: EVQLVESGGGLVQPGGSLTLSCVASGSTSSINAIGWYRRAPGKQRELVAGISSDGSKVYIDSVKGRFTISRDNAKNSVYLQMNSLRAEDTAVYYCYYFRTVSGSSYRYWGQGTLVTVSS
B3: anti-DLL3 trispecific protein 1H012 (other, not shown: small tags and cut ends)
chain: B2 chain with I34M, I60V, Y106M, R107P
B4: anti-DLL3 trispecific protein 2H02 (other, not shown: small tags and cut ends)
chain: B2 chain with I34M, G35A, V48A, I60A, R99H, Y106M
B5: anti-DLL3 trispecific protein 2E02 (other, not shown: small tags and cut ends)
chain: B2 chain with S30A, I34M, I60V, Y106Q
B6: anti-DLL3 trispecific protein 2E05 (other, not shown: small tags and cut ends)
chain: B2 chain with T28P, I34Y, I60S, Y106M, R107S
B7: anti-DLL3 trispecific protein 2C04 (other, not shown: small tags and cut ends)
chain: B2 chain with I31R, I34M, V58L, I60A, S102L, Y106M
B8: anti-DLL3 trispecific protein 4D09 (other, not shown: small tags and cut ends)
chain: B1 chain with S30K, R31F, V53A, D61L, R99E, L104Y
B9: anti-DLL3 trispecific protein 4D011 (other, not shown: small tags and cut ends)
chain: B1 chain with S30R, R31F, T101R, L104Y

The first assay has as its target T1, human DLL3 on DLL3 expressing cancer …. Put plainly: cell-based or functional assay.
For B1, the “fold increase in TDCC potency compared to the parental DLL3 binder DH6” value was > 8 fold.

The next assay shares this target. Put plainly: cell-based or functional assay. The source holds these as a separate data set.
Take B2: the “TDCC EC50, CHO expressed purified protein” value was found to be 0.17 nM.

Regarding B3, the “TDCC EC50, CHO expressed purified protein” value came out at 0.063 nM. Still for that read-out and setting: the same measure for B4: 0.096 nM; for B5: 0.12 nM; for B6: 0.072 nM. Still for that read-out and setting: the same measure for B7: 0.043 nM; for B8: 0.06 nM; for B9: 0.098 nM.
